{"source": "patent US20040253632A1", "assay_in_all_cases": "cell-based or functional assay", "key": {"[1]": {"molecular_target": "DO11.10 TCR (endogenous T cell receptor of the DO11.10 T cell hybridoma)"}, "[2]": {"molecular_target": "2B4 TCR (endogenous T cell receptor of the 2B4 T cell hybridoma) (mouse)"}, "[3]": {"molecular_target": "DO11.10 TCR (endogenous T cell receptor of the DO11.10 T cell hybridoma)", "remark": "listed apart in the source"}, "[4]": {"molecular_target": "DO11.10 scTCR/murine CD3ζ fusion molecule (membrane-bound, on transfected cells) (mouse) (UniProt P24161)", "sequence (P24161 whole entry, the tested form may be a part)": "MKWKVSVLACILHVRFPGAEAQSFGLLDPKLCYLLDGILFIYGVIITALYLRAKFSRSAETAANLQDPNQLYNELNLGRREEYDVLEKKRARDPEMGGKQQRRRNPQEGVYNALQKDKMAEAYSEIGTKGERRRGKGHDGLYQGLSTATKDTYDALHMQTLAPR"}, "[5]": {"molecular_target": "DO11.10 TCR (endogenous T cell receptor of the DO11.10 T cell hybridoma)", "remark": "listed apart in the source"}, "[6]": {"molecular_target": "DO11.10 scTCR/murine CD3ζ fusion molecule (membrane-bound, on transfected cells) (mouse) (UniProt P24161)", "remark": "listed apart in the source"}}, "note": "Read-outs that look alike come from different tables or passages of the source."}
{"molecule": "scIA^d/GD-IgG multimer (scIA^d/GD-Cκ fusion with scIA^d/GD-IgG2b heavy chain fusion) (peptide-MHC)", "values": [{"measurement": "IL-2 ELISA value; DO11.10 T cells; 12.5 ng complex/well", "setting": "[1]", "value": 0.159, "unit": "A405"}, {"measurement": "IL-2 ELISA value; DO11.10 T cells; 25 ng complex/well", "setting": "[1]", "value": 0.166, "unit": "A405"}, {"measurement": "IL-2 ELISA value; DO11.10 T cells; 50 ng complex/well", "setting": "[1]", "value": 0.155, "unit": "A405"}, {"measurement": "IL-2 ELISA value; DO11.10 T cells; 100 ng complex/well", "setting": "[1]", "value": 0.166, "unit": "A405"}]}
{"molecule": "single-chain IE^k linked to PCC 88-104 (scIE^k/PCC) (peptide-MHC)", "values": [{"measurement": "IL-2 ELISA absorbance; 2B4 T cells; 12.5 ng/well immobilized scIE^k/PCC", "setting": "[2]", "value": 0.054, "unit": "A450"}, {"measurement": "IL-2 ELISA absorbance; 2B4 T cells; 25 ng/well immobilized scIE^k/PCC", "setting": "[2]", "value": 0.081, "unit": "A450"}, {"measurement": "IL-2 ELISA absorbance; 2B4 T cells; 50 ng/well immobilized scIE^k/PCC", "setting": "[2]", "value": 0.234, "unit": "A450"}, {"measurement": "IL-2 ELISA absorbance; 2B4 T cells; 100 ng/well immobilized scIE^k/PCC", "setting": "[2]", "value": 0.413, "unit": "A450"}, {"measurement": "IL-2 ELISA absorbance; 2B4 T cells; 200 ng/well immobilized scIE^k/PCC", "setting": "[2]", "value": 0.485, "unit": "A450"}, {"measurement": "IL-2 ELISA absorbance; 2B4 T cells; 400 ng/well immobilized scIE^k/PCC", "setting": "[2]", "value": 0.216, "unit": "A450"}]}
{"molecule": "monovalent scIA^d/OVA-BirA complexes (monomer, no avidin) (peptide-MHC)", "values": [{"measurement": "IL-2 ELISA value; DO11.10 cells; 31 ng complex/well", "setting": "[1]", "value": 0.242, "unit": "A450"}, {"measurement": "IL-2 ELISA value; DO11.10 cells; 62 ng complex/well", "setting": "[1]", "value": 0.398, "unit": "A450"}, {"measurement": "IL-2 ELISA value; DO11.10 cells; 125 ng complex/well", "setting": "[1]", "value": 0.513, "unit": "A450"}, {"measurement": "IL-2 ELISA value; DO11.10 cells; 500 ng complex/well", "setting": "[1]", "value": 1.05, "unit": "A450"}, {"measurement": "IL-2 ELISA value; DO11.10 cells; 1000 ng complex/well", "setting": "[1]", "value": 1.16, "unit": "A450"}]}
{"molecule": "scIA^d/OVA-IgG multimer (scIA^d/OVA-Cκ fusion with scIA^d/OVA-IgG2b heavy chain fusion) (peptide-MHC)", "values": [{"measurement": "IL-2 ELISA value; DO11.10 T cells; 12.5 ng complex/well", "setting": "[1]", "value": 0.184, "unit": "A405"}, {"measurement": "IL-2 ELISA value; DO11.10 T cells; 25 ng complex/well", "setting": "[1]", "value": 0.758, "unit": "A405"}, {"measurement": "IL-2 ELISA value; DO11.10 T cells; 50 ng complex/well", "setting": "[1]", "value": 2.11, "unit": "A405"}, {"measurement": "IL-2 ELISA value; DO11.10 T cells; 100 ng complex/well", "setting": "[1]", "value": 2.9, "unit": "A405"}]}
{"molecule": "scIA^d/GD-IgM fusion (scIA^d/GD fused to CH2-CH3-CH4 of human IgM heavy chain), multi-valent (from UniProt P01871 106-453) (peptide-MHC)", "values": [{"measurement": "IL-2 ELISA value; DO11.10 T cells; 1 ng complex/well", "setting": "[3]", "value": 0.153, "unit": "A405"}, {"measurement": "IL-2 ELISA value; DO11.10 T cells; 3 ng complex/well", "setting": "[3]", "value": 0.14, "unit": "A405"}, {"measurement": "IL-2 ELISA value; DO11.10 T cells; 7 ng complex/well", "setting": "[3]", "value": 0.148, "unit": "A405"}, {"measurement": "IL-2 ELISA value; DO11.10 T cells; 15 ng complex/well", "setting": "[3]", "value": 0.14, "unit": "A405"}, {"measurement": "IL-2 ELISA value; DO11.10 T cells; 31 ng complex/well", "setting": "[3]", "value": 0.165, "unit": "A405"}, {"measurement": "IL-2 ELISA value; DO11.10 T cells; 62 ng complex/well", "setting": "[3]", "value": 0.157, "unit": "A405"}, {"measurement": "IL-2 ELISA value; DO11.10 T cells; 125 ng complex/well", "setting": "[3]", "value": 0.18, "unit": "A405"}, {"measurement": "IL-2 ELISA value; DO11.10 T cells; 250 ng complex/well", "setting": "[3]", "value": 0.193, "unit": "A405"}, {"measurement": "IL-2 ELISA value; DO11.10 T cells; 0.3 ng complex/well", "setting": "[1]", "value": 0.189, "unit": "A405"}, {"measurement": "IL-2 ELISA value; DO11.10 T cells; 1 ng complex/well", "setting": "[1]", "value": 0.184, "unit": "A405"}, {"measurement": "IL-2 ELISA value; DO11.10 T cells; 4 ng complex/well", "setting": "[1]", "value": 0.179, "unit": "A405"}, {"measurement": "IL-2 ELISA value; DO11.10 T cells; 11 ng complex/well", "setting": "[1]", "value": 0.188, "unit": "A405"}, {"measurement": "IL-2 ELISA value; DO11.10 T cells; 33 ng complex/well", "setting": "[1]", "value": 0.206, "unit": "A405"}, {"measurement": "IL-2 ELISA value; DO11.10 T cells; 100 ng complex/well", "setting": "[1]", "value": 0.221, "unit": "A405"}, {"measurement": "IL-2 ELISA value; DO11.10 T cells; 300 ng complex/well", "setting": "[1]", "value": 0.248, "unit": "A405"}, {"measurement": "IL-2 ELISA value; BWDZ:CD4+ transfectants; 40 ng complex/well", "setting": "[4]", "value": 0.282, "unit": "A405"}, {"measurement": "IL-2 ELISA value; BWDZ:CD4+ transfectants; 200 ng complex/well", "setting": "[4]", "value": 0.309, "unit": "A405"}, {"measurement": "IL-2 ELISA value; BWDZ:CD4+ transfectants; 1000 ng complex/well", "setting": "[4]", "value": 0.375, "unit": "A405"}, {"measurement": "IL-2 ELISA value; DO11.10 scTCR 2B4 transfectants; 1 ng complex/well", "setting": "[4]", "value": 0.196, "unit": "A405"}, {"measurement": "IL-2 ELISA value; DO11.10 scTCR 2B4 transfectants; 3 ng complex/well", "setting": "[4]", "value": 0.19, "unit": "A405"}, {"measurement": "IL-2 ELISA value; DO11.10 scTCR 2B4 transfectants; 7 ng complex/well", "setting": "[4]", "value": 0.213, "unit": "A405"}, {"measurement": "IL-2 ELISA value; DO11.10 scTCR 2B4 transfectants; 15 ng complex/well", "setting": "[4]", "value": 0.199, "unit": "A405"}, {"measurement": "IL-2 ELISA value; DO11.10 scTCR 2B4 transfectants; 31 ng complex/well", "setting": "[4]", "value": 0.226, "unit": "A405"}, {"measurement": "IL-2 ELISA value; DO11.10 scTCR 2B4 transfectants; 62 ng complex/well", "setting": "[4]", "value": 0.224, "unit": "A405"}, {"measurement": "IL-2 ELISA value; DO11.10 scTCR 2B4 transfectants; 125 ng complex/well", "setting": "[4]", "value": 0.233, "unit": "A405"}, {"measurement": "IL-2 ELISA value; DO11.10 scTCR 2B4 transfectants; 250 ng complex/well", "setting": "[4]", "value": 0.224, "unit": "A405"}]}
{"molecule": "IA^d/OVA complex on OVA peptide-pulsed A20 antigen presenting cells (peptide-MHC, mouse) MHC II alpha: EDDIEADHVGFYGTTVYQSPGDIGQYTHEFDGDELFYVDLDKKKTVWRLPEFGQLILFEPQGGLQNIAAEKHNLGILTKRSNFTPATNEAPQATVFPKSPVLLGQPNTLICFVDNIFPPVINITWLRNSKSVTDGVYETSFLVNRDHSFHKLSYLTFIPSDDDIYDCKVEHWGLEEPVLKHWEPEIPAPMSELTETVVCALGLSVGLVGIVVGTIFIIQGLRSGGTSRHPGPL MHC II beta: GNSERHFVVQFKGECYYTNGTQRIRLVTRYIYNREEYVRYDSDVGEYRAVTELGRPDAEYWNSQPEILERTRAEVDTACRHNYEGPETSTSLRRLEQPNVAISLSRTEALNHHNTLVCSVTDFYPAKIKVRWFRNGQEETVGVSSTQLIRNGDWTFQVLVMLEMTPHQGEVYTCHVEHPSLKSPITVEWRAQSESARSKMLSGIGGCVLGVIFLGLGLFIRHRSQKGPRGPPPAGLLQ peptide: ISQAVHAAHAEINEAGR", "values": [{"measurement": "IL-2 ELISA value; DO11.10 T cells with OVA peptide-loaded A20 cells; 0 µM compound 12G9", "setting": "[5]", "value": 1.91, "unit": "A405"}, {"measurement": "IL-2 ELISA value; DO11.10 T cells with OVA peptide-loaded A20 cells; 0 µM compound 211-C3", "setting": "[5]", "value": 2.02, "unit": "A405"}, {"measurement": "IL-2 ELISA value; DO11.10 T cells with OVA peptide-loaded A20 cells; 0 µM compound 211-C9", "setting": "[5]", "value": 2.02, "unit": "A405"}, {"measurement": "IL-2 ELISA value; DO11.10 T cells with OVA peptide-loaded A20 cells; 0 µM compound 211B9", "setting": "[5]", "value": 1.92, "unit": "A405"}, {"measurement": "IL-2 production of BW/DZ cells with full-length CD4 (BWDZ:CD4+) relative to DO11.10 cells; OVA peptide-mixed A20 APCs", "setting": "[6]", "value": "75 to 80", "unit": "%"}, {"measurement": "IL-2 production of BW/DZ cells with truncated CD4 lacking the cytoplasmic domain (BWDZ:deltaCM) relative to DO11.10 cells; OVA peptide-mixed A20 APCs", "setting": "[6]", "value": 10, "unit": "%"}]}
